Test results as given in publication PMC8726603.

Target: SUMO-tagged CGAS (human) (UniProt Q8N884)
Experiment: SPR

UniProt Q8N884, sequence (Q8N884 whole entry): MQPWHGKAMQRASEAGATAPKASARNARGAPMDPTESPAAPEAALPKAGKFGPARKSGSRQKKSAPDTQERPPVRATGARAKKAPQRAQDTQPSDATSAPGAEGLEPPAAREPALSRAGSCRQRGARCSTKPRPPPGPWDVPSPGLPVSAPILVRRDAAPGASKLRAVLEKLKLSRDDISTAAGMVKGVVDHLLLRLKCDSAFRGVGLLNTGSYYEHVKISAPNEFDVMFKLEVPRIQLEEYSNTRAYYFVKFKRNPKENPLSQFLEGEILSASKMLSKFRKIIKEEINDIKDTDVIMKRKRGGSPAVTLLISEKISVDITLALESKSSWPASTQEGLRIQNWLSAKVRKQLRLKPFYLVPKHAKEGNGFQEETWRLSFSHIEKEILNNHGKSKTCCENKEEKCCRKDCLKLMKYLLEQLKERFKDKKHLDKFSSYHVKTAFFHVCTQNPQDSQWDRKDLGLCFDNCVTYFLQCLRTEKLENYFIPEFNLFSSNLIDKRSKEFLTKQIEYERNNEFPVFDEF

His-tagged LC3B (from UniProt Q9GZQ8 1-120) (natural protein; other documents disagree on this pair)
Kd: 170 nM
